# Measurements from the nanobody polyreactivity screen of Harvey et al. (2022).
# Test: yeast display, Sf9 membrane polyspecificity reagent, FACS + sequencing; frameworks hold sequencing errors
# Outline: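 A nanobody's polyreactivity label depends on the gate it was sorted from. Yeast display cells were stained with 10% biotinylated, detergent-solubilized Sf9 membrane reagent for 1 hour at 4 °C, enriched on streptavidin microbeads and sorted by FACS. The low and high (top ~1%) gates were set on anti-HA fluorescence for expression and streptavidin fluorescence for reagent binding.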
row,Sequence,polyreactivity (PSR sort gate)
1,QVQLVESGGGLVQAGGSLRLSCAASGFIFGYYAMGWYRQAPGKERELVAAINKNGGSTYYADSVKGRFTISRDNAKNTVYLQMNSLKPEVTAVYYCAARARGYAWTYDYWGQGTQVTVSS,high polyreactivity
2,QVQLVESGGGLVQAGGSLRLSCAASGFIFGYYAMGWYRQAPGKERELVAAINYNDDSTYYADSVKGRFTISRDNAKNTVYLQMNSLKPEDTAVYYCAARRFWPGNSYYYRYYYWGQGTQVTVSS,low polyreactivity
3,QVQLVESGGGLVQAGGSLRLSCAASGFIFGYYAMGWYRQAPGKERELVAAITRSGGSTRYADSVKGRFTISRDKAKNTVYLQMNSLKPEDTAVYYCNAYAPRQLYGYDYWGQGTQVTVSS,high polyreactivity
4,QVQLVESGGGLVQAGGSLRLSCAASGFIFGYYVMGLYTQAPGKERELVAAITTSGGSTYYADSVKGRFTISRDNAKNTVYLQMNSLKPEDTAVYYCAADGSPSLLDYWGQVTQVTVSS,high polyreactivity
5,QVQLVESGGGLVQAGGSLRLSCAASGFIFHRYAMGWYRQAPGKERELVAAITGRGSSTYYADSVKGRFTISRDNAKNTVYLQMNCLKPEDTGVYYCNAYRYQVYDTGWFGYWGQGTQVTVSS,high polyreactivity
6,QVQLVESGGGLVQAGGSLRLSCAASGFIFHTTVMVSYRQAPAKERELVAAISSGDSTYYADSVKGRFTISRDNAKNTVYLHMNSLKPEDTEVYYCARNVNAQKVLGGFDSWGQGTQVTVSS,low polyreactivity
7,QVQLVESGGGLVQAGGSLRLSCAASGFIFIFYAMGWYRQAPGKERELVAAITWSDDSTYYADSVKGRFTISRDNAKNTVYLQMNSLKPEDTAVYYCAASYYWYHLRRKYDYWGQGTQVTVSS,low polyreactivity
8,QVQLVESGGGLVQAGGSLRLSCAASGFIFIFYAMGWYRQAPGKERELVAGISWSSSSTYYADSVKGRFTISRDNAKNTVYLLMNSLKPEDTAVYYFNAKHLPRHRDYWGQGTQVTVSS,low polyreactivity
9,QVQLVESGGGLVQAGGSLRLSCAASGFIFIRYAMGWYRQAPGKERELVAAINGGGSSTYYADSVKGRFTISRDNAKNTVYLQMNSLKPEDTAVYYCAADTDSWWYYLYYGDGFDYWGQGTQVTVSS,high polyreactivity
10,QVQLVESGGGLVQAGGSLRLSCAASGFIFIVYAMGWYRQAPGKERELVASITYSGGGTYYADSVKGRFTISRDNAKNTVYLQKNSLKPEDTAVYYCNADVSWSYSVYREYGMDYWGQGTQVTVSS,low polyreactivity
11,QVQLVESGGGLVQAGGSLRLSCAASGFIFKDNAMGWYRQAPGKERELVAVSSGTGVRTNYADSVKGRFTISRDNAKNTVYLQMNSLKPEDSAVYYCIADTYRRAQLRFNSWGQGTQVTVSS,low polyreactivity
12,QVQLVESGGGLVQAGGSLRLSCAASGFIFKDYAMRWYRHSPGKERELVAAITSGVSTNYADSVKGRFTISRDNAKNTVYLQMNSLKPEDTAVSYCNAKARLAGWWLFRLEYWGQGTQVTVSS,low polyreactivity
13,QVQLVESGGGLVQAGGSLRLSCAASGFIFKFNAMGWYRQAPGKERELVAAINYSAGSTYYADSVKGRFTISRDNAKNTVYLKMNSLKPEDTAVYYCNALYTYGWYSDDYWGQGTQVTVSS,high polyreactivity
14,QVQLVESGGGLVQAGGSLRLSCAASGFIFKIYAMGWYRQAPGKERELVATISRGGSTYYADSVKGRFTISRDNAKNTVYLQMISLNPVDTAVYYCADVFYYPPFLYNYWGQGTQVTVSS,high polyreactivity
15,QVQLVESGGGLVQAGGSLRLSCAASGFIFKKYAMGWYRQAPGKERELVAAISGSSTRTYYADSVKGRFTISRDNAKNTVYLQMNSLKPEDTAVYYCAAYYGVGFDYWGQGTQVTVSS,high polyreactivity
16,QVQLVESGGGLVQAGGSLRLSCAASGFIFKPYDMGWYRQARGKEREFVAAITYSGGRTYYADSVKGRFTISRDNAKNTVYLHMNSLKPEDTAVYYCAADQYWWYWYDYWGQGTQVTVSS,high polyreactivity
17,QVQLVESGGGLVQAGGSLRLSCAASGFIFKPYTMAWYRQAPGKERELVATITFSGGSTYYADSVKGRFTISRDNAKNTVYLQMNSLKPEDTAVYYCAAPRYYRGYAIYDYWGQGTQVTVSS,low polyreactivity
18,QVQLVESGGGLVQAGGSLRLSCAASGFIFKQNARGWYRQAPGKERELVAAISWTGGSTYYADSVQGRFTISRDNAKNTVYLQMNSLKPEDTAVFYCAARKYKSTGDRRGTMDYWGQGTQVTVSS,high polyreactivity
19,QVQLVESGGGLVQAGGSLRLSCAASGFIFKRYAMGWYRQAPGKERELVAAITLSGGDTYYADSVKGRFTISRDNAKNTVYLQMNSLKPEDTAVYYCNAPYIGENYYWGQGTQVTVSS,high polyreactivity
20,QVQLVESGGGLVQAGGSLRLSCAASGFIFKRYTMGWYRQAPGKERELVAAISANGGRTYYADSVKGRFTISRDNAKNTVYLQMNSLKPEDTAVYYCAATRWDYTLYGYDYWGQGTQVTVSS,high polyreactivity
21,QVQLVESGGGLVQAGGSLRLSCAASGFIFKSYAMGWYRQAPGKERELVAAISGRGGSTYYADSVKGRFTISRDNAKNTVYLQMNSLKPEDPAVYYCNVGPSTYYQYDYWGQGTQVTVSS,high polyreactivity
22,QVQLVESGGGLVQAGGSLRLSCAASGFIFKSYAMGWYRQAPGKERELVAAISGRGGSTYYADSVKGRFTISRDNAKNTVYLQMNSLKPEDTAVYYCNVVPSTYYQYDYWGQGTQVTVSS,high polyreactivity

row,Sequence,polyreactivity (PSR sort gate)
1,QVQLVESGGGLVQAGGSLRLSCAASGFIFKVNAMGCYRQAPGKERELVAAISRRGGTTYYADSVKGRFTISRDNAKNTVYFQLNSLKPEDTAVYYCYRARSYGVTDKVAILADDYWGQGTQVTVSS,high polyreactivity
2,QVQLVESGGGLVQAGGSLRLSCAASGFIFKWNAMGWYRQAPGKERELVAAITSGGGTYYADSVKGRFTISRDNAKNTVYLQMNSLKPEDTAVYYCAGYGYWGQGTQVTVSS,high polyreactivity
3,QVQLVESGGGLVQAGGSLRLSCAASGFIFKYNAMGWYRQAPGKERELVAAISYRGTRTYYADSVKGRFTISRDNAKNTVYLQMNSLKPEDTAVYYCNAGLTYNHHPYDYWGQGTQVTVSS,high polyreactivity
4,QVQLVESGGGLVQAGGSLRLSCAASGFIFLGNAMGWYRQAPGKERELVAAISSGGSTYSDSVKGRFTISRDNAKHTVYLQMNSLKPEDTAVYYCAADSFIPPYDHWGQGTQVTVSS,low polyreactivity
5,QVQLVESGGGLVQAGGSLRLSCAASGFIFLGYAMGWYRQAPGNERELVAAISESSGTTSYADSVKGRFTISRDNAKNTVYLQMNSLKPEDNAVYYCAADSIGNYLLYDYWGQCTQVTVSS,low polyreactivity
6,QVQLVESGGGLVQAGGSLRLSCAASGFIFLLNAMGWYRQAPGKEREFVAAISWGGGSTYYADSVKGRFTISRDNAKNTVYLQMNSLKPEDTAVYYCAAKPGKTPLTGHRGPYDTGYGYWGQGTQVTVSS,low polyreactivity
7,QVQLVESGGGLVQAGGSLRLSCAASGFIFLQYPMGWYRQAPGKERDLVAAITSGGGTNYADSVKGRFTISRDNAKNTVYLQMNSLKPEDTAVYYCAARTWPWVLGATQDDYWGQGTQVTVSS,low polyreactivity
8,QVQLVESGGGLVQAGGSLRLSCAASGFIFLRYGMGWYRQAPGKARELVATISWSGDSTYADSVKGRFTISRDNAKNTLYLQMNSLKPEDTAVYYCATSGDWWGFRYDYWGQGTQVTVSS,low polyreactivity
9,QVQLVESGGGLVQAGGSLRLSCAASGFIFLTNAMGWYRQAPWKERELVAAITGGGITYYADSVKGRFTISLDNAKNTVYLQMNSLNPEDTAVYYCATDSLIFTIFDYWGQGSQVTVSS,low polyreactivity
10,QVQLVESGGGLVQAGGSLRLSCAASGFIFLVNAMGWYSGAPGKERELVAAISKSTGGTYYADSVKGRFTISRDNAKNTVYLQMNSLKPEDTAVYYCAADEVYPVQRDMDYWGQGTQVTVSS,low polyreactivity
11,QVQLVESGGGLVQAGGSLRLSCAASGFIFLYNAMGWDRQARGKERELVAAITSSGGTTYYADSVKGRFTISRDNAKNTVYLQINSLKPEDTAVYYCAARYTGRNGGSTTPEYDYWGQGTQVTVSS,low polyreactivity
12,QVQLVESGGGLVQAGGSLRLSCAASGFIFLYYAMGWYRQAPGKERELVAAISSSGGSTYYADSVKGRFTISRDNAKNTVYLQMNSLKPEDTAVYYCAARRKGKARVPQYDYWGQGTQVTVSS,high polyreactivity
13,QVQLVESGGGLVQAGGSLRLSCAASGFIFNHYRMGWYRPAPGKEREFVAAISWSGGSTYYADSVKGRFTISRDNAKNTVYLQMNSLKPEDTAVYYCAASYNGLWHGDYDYWGQGTQVTVSS,low polyreactivity
14,QVQLVESGGGLVQAGGSLRLSCAASGFIFNIYGMGWYRQAPGKERELVAAISRGGSTYYADSVKGRFTISRDNAKNTGYLQMNSLTPEDTAVYYCAAVGYTLEYEYWGQGTQVTVSS,low polyreactivity
15,QVQLVESGGGLVQAGGSLRLSCAASGFIFNLYAMGWYRQAPGKERELVAAISSGGGTSYADSVKGRFTISRDNAKNTVYLQMNSLKPEDTAVYYCAAGYKRRYYWKGYTRYDYWGQGTQVTVSS,high polyreactivity
16,QVQLVESGGGLVQAGGSLRLSCAASGFIFNRYAMGWYRQAPGKERELVADITGGSTYYADSVKGRFTISRDNAKNTVYLQMNSLKPEDTAVYYCAADVLRISTQLFRGPGFDSWGQGTQVTVSS,low polyreactivity
17,QVQLVESGGGLVQAGGSLRLSCAASGFIFNVYAMGWYRQAPGKERELVAAISQRGGRTYYADSVKGRFTISRDNAKNTVYLQMNSLKPEDTAVYYCKLFYPKHGYWGQGTQVTVSS,high polyreactivity
18,QVQLVESGGGLVQAGGSLRLSCAASGFIFNYYLGWYRQAPGKEREWVAAISQSGDSTYYADSVKGRFTISRDNAKNTVYLQMNSQKPEDTAVYYCAAETSPDYRGVTYYYWGQGTQVTLSS,high polyreactivity
19,QVQLVESGGGLVQAGGSLRLSCAASGFIFPAYAMGWYRPAPGKERELVAAISKSGGRTYYADSVKGRFTISRDNAKNTVYIQMKSLKPEYTAVYYCDARMYNYDTSSSFDYWGQGTQVTVSS,high polyreactivity
20,QVQLVESGGGLVQAGGSLRLSCAASGFIFPIYAMGWYRQAPGKERELVAAITSNGASTYYADSVKGRFTISRDNAKNTVYLQMNSLKPEDTAVYYCARDPSIRALEHDYWGQGTKVTVSS,high polyreactivity
21,QVQLVESGGGLVQAGGSLRLSCAASGFIFPNNAMGWYRQAPGKERELVARISYGGGDTHYADSVKGRFTISRDTAKNTVYLQMNSLKPEDTAVYYCAVKDGQDDYWGQGTQVTVSS,low polyreactivity
